Measured values taken from patent US20240360201A1 (BIOCYTOGEN PHARMACEUTICALS BEIJING, published 2024).

T1: FcγRIIA-H167-Acro (human, UniProt P12318 36-218, limits assumed)
T1 construct: bought; His at 167; also called Human Fc gamma RIIA/CD32a (H167) Protein, His Tag
T1 sequence (looked up): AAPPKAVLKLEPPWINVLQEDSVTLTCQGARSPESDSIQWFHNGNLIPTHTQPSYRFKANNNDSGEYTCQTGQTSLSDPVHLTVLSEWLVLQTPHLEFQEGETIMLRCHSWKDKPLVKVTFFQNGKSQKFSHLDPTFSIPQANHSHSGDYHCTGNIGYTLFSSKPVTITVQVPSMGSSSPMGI

T2: FcγRIIA-R167-Sino (human, UniProt P12318 34-218, limits assumed)
T2 construct: bought; Arg at 167; also called FCRIIA-R167-Sino; CD32A Protein, Human, Recombinant (167 Arg, His Tag)
T2 sequence (looked up): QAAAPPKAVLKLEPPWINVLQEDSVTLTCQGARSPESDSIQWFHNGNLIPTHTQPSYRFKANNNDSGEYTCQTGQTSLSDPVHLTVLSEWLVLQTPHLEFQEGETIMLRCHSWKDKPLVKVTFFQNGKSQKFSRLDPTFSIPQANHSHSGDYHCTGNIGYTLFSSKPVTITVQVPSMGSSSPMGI

B1: PD1-PL1-3F2-FV3A-IgG1 (bispecific antibody)
heavy: EVQLVESGGGLVQPGGSLRLSCAASGFTFSSYSMSWVRQAPGKRLEWVAHISSGGSSTYYPDTVKGRFTISRDNSKNTLYLQMNSLRAEDTAMYYCTRQFYYGSSFWYFDVWGAGTTVTVSSASTKGPSVFPLAPSSKSTSGGTAALGCLVKDYFPEPVTVSWNSGALTSGVHTFPAVLQSSGLYSLSSVVTVPSSSLGTQTYICNVNHKPSNTKVDKKVEPKSCDKTHTCPPCPAPELLGGPSVFLFPPKPKDTLMISRTPEVTCVVVDVSHEDPEVKFNWYVDGVEVHNAKTKPREEQYNSTYRVVSVLTVLHQDWLNGKEYKCKVSNKALPAPIEKTISKAKGQPREPQVYTLPPSREEGGGGSGGGGSQVQLQESGPGLVKPSETLSLTCTVSGYSITSGYNWHWIRQFPGNCLEWMGYIHHSSITNYNPSLKSRITISRDTSKNQFSLKLSSVTAADTATYYCAREGYDYDWFAYWGQGTLVTVSSASTGGGGSGGGGSGGGGSGGGGSDIVLTQSPDFQSVTPKEKVTLSCRASQSISNNLHWYQQKPDESPKLLIKYASQSISGIPSRFSGSGSGTDFTLTINSVEAEDFAMYFCQQSKSWPFTFGCGTRLEIKGGGGSGGGGSVSLTCLVKGFYPSDIAVEWESNGQPENNYKTTPPVLDSDGSFFLYSKLTVDKSRWQQGNVFSCSVMHEALHNHYTQKSLSLSPGK
light: DNVLTQSPATLSVSPGERATLSCKASQSVDFDGDSYMNWYQQKPGQPPRLLIYAASNLESGIPARFSGSGSGTDFTLTISSVEPEDFATYYCQQSNEDPPTFGGGTKVEIKRTVAAPSVFIFPPSDEQLKSGTASVVCLLNNFYPREAKVQWKVDNALQSGNSQESVTEQDSKDSTYSLSSTLTLSKADYEKHKVYACEVTHQGLSSPVTKSFNRGEC
notes: IgG1; also called G4
B2: PDL1-C40-6A7-FV3A-IgG4 (bispecific antibody)
heavy: EVQLLESGGGLVQPGGSLRLSCAASGFTFSSYIMMWVRQAPGKGLEWVSSIYPSGGITFYADTVKGRFTISRDNSKNTLYLQMNSLRAEDTAVYYCARIKLGTVTTVDYWGQGTLVTVSSASTKGPSVFPLAPCSRSTSESTAALGCLVKDYFPEPVTVSWNSGALTSGVHTFPAVLQSSGLYSLSSVVTVPSSSLGTKTYTCNVDHKPSNTKVDKRVESKYGPPCPPCPAPEFLGGPSVFLFPPKPKDTLMISRTPEVTCVVVDVSQEDPEVQFNWYVDGVEVHNAKTKPREEQFNSTYRVVSVLTVLHQDWLNGKEYKCKVSNKGLPSSIEKTISKAKGQPREPQVYTLPPSQEEGGGGSGGGGSDVVMTQSPLSLPVTLGQPASISCRSSQSLLHSNGNTYLHWYQQRPGQSPNHLIYQVSNRFSGVPDRFSGSGSGTDFTLKISRVEAEDVGVYFCSQTTHVPWTFGCGTKVEIKGGGGSGGGGSGGGGSGGGGSQVQLVQSGAEVKKPGASVKLSCKASGYTFISYYIYWVKQAPGQCLEWIGGINPRNGGTNFNEKFKSRATLTVDTSISTAYMELSRLRSEDTAVYYCTRHGNGVYWGQGTTLTVSSGGGGSGGGGSVSLTCLVKGFYPSDIAVEWESNGQPENNYKTTPPVLDSDGSFFLYSRLTVDKSRWQEGNVFSCSVMHEALHNHYTQKSLSLSLGK
light: QSALTQPASVSGSPGQSITISCTGTSSDVGGYNYVSWYQQHPGKAPKLMIYDVSNRPSGVSNRFSGSKSGNTASLTISGLQAEDEADYYCSSYTSSSTRVFGTGTKVTVLGQPKANPTVTLFPPSSEELQANKATLVCLISDFYPGAVTVAWKADGSPVKAGVETTKPSKQSNNKYAASSYLSLTPEQWKSHRSYSCQVTHEGSTVEKTVAPTECS
notes: IgG4 subtype of PDL1-C40-6A7-FV3A; also called G5
B3: PDL1-TGFbR2-3A (antibody)
heavy: EVQLLESGGGLVQPGGSLRLSCAASGFTFSSYIMMWVRQAPGKGLEWVSSIYPSGGITFYADTVKGRFTISRDNSKNTLYLQMNSLRAEDTAVYYCARIKLGTVTTVDYWGQGTLVTVSSASTKGPSVFPLAPSSKSTSGGTAALGCLVKDYFPEPVTVSWNSGALTSGVHTFPAVLQSSGLYSLSSVVTVPSSSLGTQTYICNVNHKPSNTKVDKKVEPKSCDKTHTCPPCPAPELLGGPSVFLFPPKPKDTLMISRTPEVTCVVVDVSHEDPEVKFNWYVDGVEVHNAKTKPREEQYNSTYRVVSVLTVLHQDWLNGKEYKCKVSNKALPAPIEKTISKAKGQPREPQVYTLPPSRDEGGGGSGGGGSIPPHVQKSVNNDMIVTDNNGAVKFPQLCKFCDVRFSTCDNQKSCMSNCSITSICEKPQEVCVAVWRKNDENITLETVCHDPKLPYHDFILEDAASPKCIMKEKKKPGETFFMCSCSSDECNDNIIFSEEYNTSNPDGGGGSGGGGSVSLTCLVKGFYPSDIAVEWESNGQPENNYKTTPPVLDSDGSFFLYSKLTVDKSRWQQGNVFSCSVMHEALHNHYTQKSLSLSPGK
light: QSALTQPASVSGSPGQSITISCTGTSSDVGGYNYVSWYQQHPGKAPKLMIYDVSNRPSGVSNRFSGSKSGNTASLTISGLQAEDEADYYCSSYTSSSTRVFGTGTKVTVLGQPKANPTVTLFPPSSEELQANKATLVCLISDFYPGAVTVAWKADGSPVKAGVETTKPSKQSNNKYAASSYLSLTPEQWKSHRSYSCQVTHEGSTVEKTVAPTECS
notes: IgG1; also called PDL1-TGFbR2-3A (IgG1); PDL1-TGFbR2-3A-IgG1

Key:
FcγRIIIA-V176-Acro = biological target: T3, FcγRIIIA-V176-Acro (human, UniProt P08637 17-208); assay: SPR (Biacore T200, protein A sensor chip), binding to FcγRIIIA-V176-Acro
T3 construct: bought; Val at 176; also called Human Fc gamma RIIIA/CD16a (V176) Protein, His Tag
T3 sequence (P08637 17-208 F176V limits assumed): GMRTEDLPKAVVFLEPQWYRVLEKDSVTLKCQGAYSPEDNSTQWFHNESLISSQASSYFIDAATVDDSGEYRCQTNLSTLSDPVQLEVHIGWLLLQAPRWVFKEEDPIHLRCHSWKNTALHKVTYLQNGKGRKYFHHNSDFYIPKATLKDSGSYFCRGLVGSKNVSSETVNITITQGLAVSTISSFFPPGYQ
Description: (§1) The Fc receptors included FcγRIIB (FcγRIIB-Acro), FcγRIIA (FcγRIIA-H167-Acro), FcγRIIIA (FcγRIIIA-V176-Acro), FcγRIIIB (FcγRIIIB-NA1-Acro), FcγRI (FcγRI-Sino), and FcRn (FcRn-Acro).
(§2) The Fc receptors included FcγRI (FcγRI-Sino), FcγRIIA (FcγRIIA-H167-Acro and FcγRIIA-R167), FcγRIIB, FcγRIIIA (FcγRIIIA-F176 and FcγRIIIA-V176-Acro), and FcγRIIIB (FcγRIIIB-NA1-Acro).

[1] = biological target: T4, 6×Histidine-tagged human PD-L1 protein (hPDL1-His) (human, UniProt Q9NZQ7 19-238); assay: SPR Biacore T200; binder captured on protein A chip, target as analyte
T4 construct: also called hPL1-His; His-tagged human PD-L1
T4 sequence (Q9NZQ7 19-238 limits assumed): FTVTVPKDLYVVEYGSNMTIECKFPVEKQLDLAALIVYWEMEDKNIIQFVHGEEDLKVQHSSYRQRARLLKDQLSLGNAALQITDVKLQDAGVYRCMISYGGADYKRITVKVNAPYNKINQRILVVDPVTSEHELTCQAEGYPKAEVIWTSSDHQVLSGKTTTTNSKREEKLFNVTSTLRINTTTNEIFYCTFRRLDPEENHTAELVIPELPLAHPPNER
Protocol: Binding affinities of the fusion proteins against human CTLA4 (hCTLA4-His) or human PD-L1 (hPDL1) were measured by surface plasmon resonance (SPR) using Biacore™ T200 biosensor equipped with pre-immobilized protein A sensor chips. A CTLA4 antibody CT4-4G12-IgG1 (CT4) was used as a control. ATOR1015-CD86 (CD86) and KN035-IgG1 (with D265A mutation in heavy chain constant domain) were also used as controls.

FcγRIIB = biological target: T5, FcγRIIB (human); assay: SPR (Biacore T200, protein A sensor chip), binding to FcγRIIB
T5 construct: recombinant protein used as SPR analyte
T5 sequence (P31994 43-217): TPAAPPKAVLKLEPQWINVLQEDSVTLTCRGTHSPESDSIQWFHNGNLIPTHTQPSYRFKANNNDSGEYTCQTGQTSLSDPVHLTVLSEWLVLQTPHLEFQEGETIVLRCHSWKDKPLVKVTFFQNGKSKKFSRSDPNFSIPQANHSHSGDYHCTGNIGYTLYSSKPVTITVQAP
Description: as §1, §2

FcγRIIA-R167 = biological target: T6, FcγRIIA-R167 (human); assay: SPR (Biacore T200, protein A sensor chip), binding to FcγRIIA-R167
T6 construct: recombinant, His tag; ACRO product; different from FcγRIIA-R167-Sino; also called Human Fc gamma RIIA/CD32a (R167) Protein, His Tag
Description: as §1, §2

FcγRI-Sino [2] = biological target: T7, FcγRI-Sino (human, UniProt P12314 16-288, limits assumed); assay: SPR (Biacore T200, protein A sensor chip), binding to FcγRI-Sino
T7 construct: bought; also called CD64 Protein, Human, Recombinant (His Tag)
T7 sequence (P12314 16-288 limits assumed): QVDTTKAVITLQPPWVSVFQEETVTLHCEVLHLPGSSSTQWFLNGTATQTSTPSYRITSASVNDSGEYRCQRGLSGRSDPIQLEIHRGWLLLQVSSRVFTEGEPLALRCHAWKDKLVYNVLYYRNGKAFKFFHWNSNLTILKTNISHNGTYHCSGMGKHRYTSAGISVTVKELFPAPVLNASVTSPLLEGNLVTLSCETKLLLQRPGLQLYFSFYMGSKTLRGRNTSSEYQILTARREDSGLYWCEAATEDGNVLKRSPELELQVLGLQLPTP
Description: as §1, §2

FcγRIIIA-F176 = biological target: T8, FcγRIIIA-F176 (human, UniProt P08637); assay: SPR (Biacore T200, protein A sensor chip), binding to FcγRIIIA-F176
T8 construct: recombinant, His tag; ACRO product; different from FcγRIIIA-F176-Sino; also called Human Fc gamma RIIIA/CD16a (F176) Protein, His Tag
T8 sequence (P08637 17-208 limits assumed, form in doubt): as the sequence (P08637 17-208 F176V limits assumed) above, with V160F counted along it
Description: as §1, §2

FcγRIIA-H167-Acro = biological target: T1, FcγRIIA-H167-Acro; assay: SPR (Biacore T200, protein A sensor chip), binding to FcγRIIA-H167-Acro
Description: as §1, §2

FcγRIIIB-NA1-Acro = biological target: T9, FcγRIIIB-NA1-Acro (human, UniProt O75015 17-200, limits assumed); assay: SPR (Biacore T200, protein A sensor chip), binding to FcγRIIIB-NA1-Acro
T9 construct: bought; also called Human Fc gamma RIIIB/CD16b (NA1) Protein, His Tag
T9 sequence (O75015 other isoform, or with tags, fused parts or gaps limits assumed): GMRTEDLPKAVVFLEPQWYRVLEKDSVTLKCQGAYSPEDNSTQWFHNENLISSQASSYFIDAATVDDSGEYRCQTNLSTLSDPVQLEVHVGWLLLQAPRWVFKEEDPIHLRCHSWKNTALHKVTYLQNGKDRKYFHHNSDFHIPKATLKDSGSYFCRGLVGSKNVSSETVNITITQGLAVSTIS
Description: as §1, §2

human CD40 (hCD40-his) = human CD40 (hCD40-his) (human, UniProt P25942 21-193); assay: SPR Biacore T200; binder captured on protein A chip, target as analyte
Chain of human CD40 (hCD40-his) (P25942 21-193 limits assumed): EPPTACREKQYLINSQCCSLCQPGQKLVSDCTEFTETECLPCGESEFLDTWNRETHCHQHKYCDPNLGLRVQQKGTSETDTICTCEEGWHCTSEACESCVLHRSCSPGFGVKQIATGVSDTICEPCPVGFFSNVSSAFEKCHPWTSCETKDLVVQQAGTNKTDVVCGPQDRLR
Protocol: Binding affinity to human CD40 of the obtained fusion proteins PDL1-C40-6A7-FV3A (IgG1), PDL1-C40-6A7-FV3A-IgG4, PDL1-C40-6A7-FV3C (IgG1), PDL1-C40-6A7-FV3A1 (IgG1), PDL1-C40-6A7-FV3A2 (IgG1), and PDL1-C40-6A7-FV3A3 (IgG1) were determined by surface plasmon resonance (SPR) using Biacore™ T200 biosensor equipped with pre-immobilized protein A sensor chips. The original anti-CD40 monoclonal antibody C40-6A7 IgG2 (6A7, VH SEQ ID NO: 91, VL SEQ ID NO: 92), which the scFV was derived from, was used as a control.

FcγRIIIB-Sino = biological target: T10, FcγRIIIB-Sino (human, UniProt O75015 17-200, limits assumed); assay: SPR Biacore T200; binder captured on protein A chip, Fc receptor as analyte
T10 construct: bought; also called FCRIIIB-Sino; CD16b Protein, Human, Recombinant (NA1 allotypes, His Tag)
T10 sequence (O75015 other isoform, or with tags, fused parts or gaps limits assumed): as the sequence (O75015 other isoform, or with tags, fused parts or gaps limits assumed) above
Protocol: (§3) Binding affinities of the fusion proteins PDL1-TGFbR2-3A (IgG1) (or PDL1-TGFbR2-3A-IgG1) and PDL1-TGFbR2-3A-IgG4 to human Fc receptors were measured by surface plasmon resonance (SPR) using Biacore™ T200 biosensor equipped with pre-immobilized protein A sensor chips. The Fc receptors included FcγRI-Sino, FcγRIIA-R167-Sino, FcγRIIIA-F176-Sino, FcγRIIIB-Sino, and FcγRn. A humanized CTLA4 antibody CT4-4G12-IgG1 (CT4-4G12, or 4G12; VH SEQ ID NO: 44, VL SEQ ID NO: 45) was used as a control to test binding affinity to FcγRn.

FcγRIIA-R167-Sino = biological target: T2, FcγRIIA-R167-Sino; assay: as above
Protocol: as §3

FcRn = biological target: T11, FcRn (human, UniProt P55899 24-297; P61769 21-119); assay: as above
T11 construct: bought; also called FcγRn; FcRn-Acro
T11 sequence (P55899 24-297 limits assumed, chain 1 of 2): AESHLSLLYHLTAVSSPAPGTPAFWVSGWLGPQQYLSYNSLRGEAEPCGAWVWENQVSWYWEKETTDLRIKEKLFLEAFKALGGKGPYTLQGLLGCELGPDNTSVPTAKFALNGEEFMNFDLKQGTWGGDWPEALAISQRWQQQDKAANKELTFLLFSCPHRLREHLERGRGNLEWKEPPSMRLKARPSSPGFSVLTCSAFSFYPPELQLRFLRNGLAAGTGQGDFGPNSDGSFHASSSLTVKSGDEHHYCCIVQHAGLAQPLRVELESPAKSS
T11 sequence (P61769 21-119 limits assumed, chain 2 of 2): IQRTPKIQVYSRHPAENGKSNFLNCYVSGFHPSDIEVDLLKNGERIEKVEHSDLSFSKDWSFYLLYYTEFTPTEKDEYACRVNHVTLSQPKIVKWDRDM
Protocol: as §3

FcγRI-Sino [3] = biological target: T7, FcγRI-Sino; assay: as above
Protocol: as §3

TGFb1 = biological target: T12, TGFb1 (Homo sapiens (Human), UniProt P01137 279-390, Active TGF-beta-1 is a disulfide-linked homodimer of this chain; one copy is given.); assay: SPR; binder as capture solution, TGFb1 as analyte
T12 construct: also called TGFb1 protein
T12 sequence (P01137 279-390 limits assumed): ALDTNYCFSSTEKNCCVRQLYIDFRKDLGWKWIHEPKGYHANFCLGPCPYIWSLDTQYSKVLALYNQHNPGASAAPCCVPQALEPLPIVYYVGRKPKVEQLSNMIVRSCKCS

Binder | Kd (FcγRIIIA-V176-Acro) [nM] | Kd [1] [nM] | koff [1] [s⁻¹] | kon [1] [M⁻¹ s⁻¹] | Kd (FcγRIIB) [nM] | Kd (FcγRIIA-R167) [nM] | Kd (FcγRI-Sino [2]) [nM] | Kd (FcγRIIIA-F176) [nM] | Kd (FcγRIIA-H167-Acro) [nM] | Kd (FcγRIIIB-NA1-Acro) [nM] | Kd (human CD40 (hCD40-his)) [nM] | koff (human CD40 (hCD40-his)) [s⁻¹] | kon (human CD40 (hCD40-his)) [M⁻¹ s⁻¹] | Kd (FcγRIIIB-Sino) [nM] | Kd (FcγRIIA-R167-Sino) [nM] | Kd (FcRn) [nM] | Kd (FcγRI-Sino [3]) [nM] | Kd (TGFb1) [nM] | koff (TGFb1) [s⁻¹] | kon (TGFb1) [M⁻¹ s⁻¹]
B1 | 130 | 2.41 | 0.00103 | 429000 | 2350 | 326 | 2.94 | 84.6 | 633 | 1180 |  |  |  |  |  |  |  |  |  | 
B2 | 75.3 |  |  |  | 766 | 706 | 1.22 |  | 1130 |  | 0.852 | 0.000432 | 507000 |  |  |  |  |  |  | 
B3 |  |  |  |  |  |  |  |  |  |  |  |  |  | 1330 | 844 | 19.4 | 14.5 | 37.3 | 0.00573 | 154000
